Tests used:
Experiment in all cases: SPR
Settings in all cases: biotin (Biotin DecaLabel); SPR: PBS + 0.05% Tween 20, 25 C, 10 ul/min, SA chip (BIAcore 3000); ELISA: DNA coated at 10 ug/ml in Reacti-bind DNA coating solution, anti-GST detection …
[1] = tested on: Ms0826, GST removed (M. succiniproducens)
[2] = tested on: APL_1406, GST removed (Actinobacillus pleuropneumoniae serovar 15 HS143?)
[3] = tested on: Hi1008, GST removed (Haemophilus influenzae NCTC 8470/ATCC 9332 Pittman type D?)
[4] = tested on: ComE1 (PM1665), GST removed (Pasteurella multocida NCTC 10322/ATCC 43137?)
[5] = tested on: Aa1426, GST removed (Aggregatibacter (Actinobacillus) actinomycetemcomitans HK1651 (JP2 clone)?)

Substance pUC19 (biotinylated) has a Kd [1] of 46 µM, a Kd [2] of 4 µM and a Kd [3] of 5 µM. It also gave a Kd [4] of 7.3 µM and a Kd [5] of 16 µM.

From article PMC2601033
